Results published in FireProtDB (doi:10.1016/j.bpc.2008.09.020).

B1: Cytochrome c-551, P00099 (parent)
chain: MKPYALLSLLATGTLLAQGAWAEDPEVLFKNKGCVACHAIDTKMVGPAYKDVAAKFAGQAGAEAELAQRIKNGSQGVWGPIPMPPNAVSDDEAQTLAKWVLSQK

Variants of: B1
Settings: Pseudomonas aeruginosa (strain ATCC 15692 / DSM 22644 / CIP 104116 / JCM 14847 / LMG 12228 / 1C / PRS 101 / PAO1), 25 °C, GdnHCl, CD, Sodium acetate 20 mM, structure 451C, whole UniProt chain shown

Variant | ddG of mutation (higher = less stable) (pH 3.6) [kcal/mol] | denaturant m value (pH 3.6) [kcal/mol/M] | denaturant midpoint (higher = more stable) (pH 3.6) [M] | unfolding free energy (pH 3.6) [kcal/mol] | ddG of mutation (higher = less stable) (pH 5) [kcal/mol] | denaturant m value (pH 5) [kcal/mol/M] | denaturant midpoint (higher = more stable) (pH 5) [M] | unfolding free energy (pH 5) [kcal/mol]
MKPYALLSLLATGTLLAQGAWAEDPEVLFKNKGCVACHAIDTKMVGPAYKDVAAKYAGQAGAEAYLAQRIKNGSQGVWGPIPMPPNAVSDDEAQTLAKWILSQK | -1.63 | 2.57 | 2.25 | 5.77 | -2.95 | 2.44 | 3.44 | 8.39
MKPYALLSLLATGTLLAQGAWAEDPEVLAKNKGCMACHAIDTKMVGPAYKDVAAKYAGQAGAEAYLAQRIKNGSQGVWGPIPMPPNAVSDDEAQTLAKWVLSQK | -2.39 | 2.52 | 2.59 | 6.52 | -3.76 | 2.43 | 3.78 | 9.21
MKPYALLSLLATGTLLAQGAWAEDPEVLAKNKGCMACHAIDTKMVGPAYKDVAAKYAGQAGAEAYLAQRIKNGSQGVWGPIPMPPNAVSDDEAQTLAKWILSQK | -3.34 | 2.54 | 2.95 | 7.48 | -4.78 | 2.44 | 4.2 | 10.2
MKPYALLSLLATGTLLAQGAWAEDPEVLAKNKGCMACHAIDTKMVGPAYKDVAAKFAGQAGAEAELAQRIKNGSQGVWGPIPMPPNAVSDDEAQTLAKWILSQK | -1.9 | 2.45 | 2.46 | 6.04 | -2.29 | 2.47 | 3.13 | 7.74
MKPYALLSLLATGTLLAQGAWAEDPEVLFKNKGCVACHAIDTKMVGPAYKDVAAKYAGQAGAEAELAQRIKNGSQGVWGPIPMPPNAVSDDEAQTLAKWVLSQK | -0.28 | 2.76 | 1.6 | 4.41 | -1.33 | 2.67 | 2.54 | 6.78
MKPYALLSLLATGTLLAQGAWAEDPEVLFKNKGCVACHAIDTKMVGPAYKDVAAKFAGQAGAEAELAQRIKNGSQGVWGPIPMPPNAVSDDEAQTLAKWILSQK | -1.05 | 2.74 | 1.89 | 5.18 | -1.49 | 2.74 | 2.53 | 6.93
MKPYALLSLLATGTLLAQGAWAEDPEVLFKNKGCVACHAIDTKMVGPAYKDVAAKYAGQAGAEAYLAQRIKNGSQGVWGPIPMPPNAVSDDEAQTLAKWVLSQK | -0.72 | 2.7 | 1.8 | 4.85 | -2.27 | 2.68 | 2.88 | 7.71
MKPYALLSLLATGTLLAQGAWAEDPEVLAKNKGCMACHAIDTKMVGPAYKDVAAKFAGQAGAEAELAQRIKNGSQGVWGPIPMPPNAVSDDEAQTLAKWVLSQK | -1.45 | 2.56 | 2.18 | 5.58 | -1.92 | 2.57 | 2.87 | 7.37
MKPYALLSLLATGTLLAQGAWAEDPEVLFKNKGCVACHAIDTKMVGPAYKDVAAKFAGQAGAEAYLAQRIKNGSQGVWGPIPMPPNAVSDDEAQTLAKWVLSQK | -0.09 | 2.88 | 1.46 | 4.23 | -1.13 | 3.1 | 2.12 | 6.57
